± gives the standard deviation of the averaged measurements.
These sequences were tested on Saccharomyces cerevisiae (assay: protein stability index of tFT-peptide fusion (C-terminal peptide) (PSI (0-1 scale)); higher = more stable (slower turnover)). Details: genetic background: wild type; temperature: 30 C.
Protocol: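 MPS profiling in S. cerevisiae of the tFT-X12 degron library: putative degron peptides plus stable controls, 12 aa, fused to the C-terminus of a sfGFP-mCherry timer. Cells are FACS-sorted into 8 mCherry/sfGFP bins and deep-sequenced. PSI runs from 0 (unstable) to 1 (stable). Backgrounds are wild type, das1Δ and doa10Δ at 30 °C, and wild type, das1Δ, cdc34-1 and cdc53-1 at 37 °C; 2-3 technical replicates each.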
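Further: PSI is a weighted mean of sequencing reads over stability bins, variants kept only with over 10 reads, mCherry proximal and sfGFP distal, peptide attached via GGGS linker.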

Compared with TSFLHLFVAAII, TSLPPSPPPSPT is lower in protein stability index: 0.434 ± 0.012 for the first, 0.392 ± 0.012 for the second.

Compared with TSPYTSFAHTSL, VAFGVASGWCWF is lower in protein stability index: 0.6569 ± 0.006 for the first, 0.397 ± 0.015 for the second.

Compared with VAFILVVCKGIG, VAWWVCIRSCCG is higher in protein stability index: 0.152 ± 0.013 for the first, 0.395 ± 0.015 for the second.

Compared with VCCSSVSLLVFA, VCGYGFAVPCYT is higher in protein stability index: 0.256 ± 0.033 for the first, 0.372 ± 0.012 for the second.

Going from VCILLVAWCLMG to VCLLGWGVRLVS, the protein stability index rises from 0.124 ± 0.02 to 0.371 ± 0.023.

Compared with VCMHIVLLAASP, VCSRWFFVFVVR is higher in protein stability index: 0.202 ± 0.021 for the first, 0.291 ± 0.051 for the second.

First: VCVFFRLCIVWY
Second: VDGVSFFVVLLC
The protein stability index of the first is lower: 0.103 ± 0.021 for the first, 0.198 ± 0.026 for the second.

VDSTCLLITLLA and VEIKSKRMLVVI are within error of each other in protein stability index: 0.296 ± 0.023 for the first, 0.322 ± 0.04 for the second.

Compared with VEQLLYIKATNV, VFDFVFHLRFVV is lower in protein stability index: 0.29 ± 0.036 for the first, 0.0905 ± 0.025 for the second.

First: VFFCLFVLFLSG
Second: VFFGLYLVTFTS
The protein stability index of the first is higher: 0.282 ± 0.015 for the first, 0.202 ± 0.025 for the second.

First: VFFHFFVCWRFV
Second: VFFLLSVYMVMM
The protein stability index of the first is lower: 0.0548 ± 0.018 for the first, 0.184 ± 0.015 for the second.

First: VFFTSLPPLLRA
Second: VFIVVEFRLSLY
The protein stability index of the first is higher: 0.37 ± 0.032 for the first, 0.17 ± 0.0089 for the second.

Compared with VFKLGWVLCVLL, VFLACSMTGGDA is higher in protein stability index: 0.165 ± 0.0049 for the first, 0.36 ± 0.049 for the second.

Compared with VFLDCCLRVFVD, VFLLFFFGLFVF is higher in protein stability index: 0.222 ± 0.023 for the first, 0.314 ± 0.007 for the second.

VFLPVMVFFTFS and VFRLLLFFVFVF are within error of each other in protein stability index: 0.282 ± 0.016 for the first, 0.236 ± 0.034 for the second.

VGAVGVCILFVW and VGFYGRWVCVAC are within error of each other in protein stability index: 0.232 ± 0.042 for the first, 0.265 ± 0.019 for the second.

Going from VGGSRGARLGVG to VGRANLSVIRKV, the protein stability index falls from 0.384 ± 0.01 to 0.29 ± 0.024.

Going from VGSSSGRLLYLC to VGTIVLTCIEVN, the protein stability index falls from 0.302 ± 0.022 to 0.187 ± 0.011.

Going from VGVVLWVWGLGD to VGVVVVGDVLVW, the protein stability index falls from 0.426 ± 0.032 to 0.26 ± 0.025.

VIQNKKKNKITS and VIYYVRVGLVLS are within error of each other in protein stability index: 0.168 ± 0.015 for the first, 0.117 ± 0.045 for the second.

First: VLARGFHCMYFC
Second: VLGPRFCFVCHA
The protein stability index of the first is higher: 0.447 ± 0.021 for the first, 0.253 ± 0.033 for the second.

VLLSSSLVFLIS and VLVCYFCRYISH are within error of each other in protein stability index: 0.416 ± 0.02 for the first, 0.398 ± 0.021 for the second.

VLVTFFIRSGVS and VMFCRFPLRFGC are within error of each other in protein stability index: 0.338 ± 0.028 for the first, 0.348 ± 0.023 for the second.

Compared with VPTRRRGNRRPA, VQVLVAIMDGRM is lower in protein stability index: 0.653 ± 0.015 for the first, 0.37 ± 0.019 for the second.

VRFLSLNVLFFC and VRGWLAYLRWII are within error of each other in protein stability index: 0.244 ± 0.029 for the first, 0.205 ± 0.018 for the second.

Going from VSFGELGVEVVG to VSGEWSFLVRVQ, the protein stability index falls from 0.559 ± 0.018 to 0.411 ± 0.024.

First: VSISLCVLCPVF
Second: VSLSWFSCCFVG
The protein stability index of the first is lower: 0.261 ± 0.016 for the first, 0.377 ± 0.019 for the second.

VSVFSLFLFLRV and VSVVLKTQRVVC are within error of each other in protein stability index: 0.35 ± 0.03 for the first, 0.346 ± 0.033 for the second.

First: VTFWISLVYVLV
Second: VTVWVFVFLRGL
The protein stability index of the first is lower: 0.16 ± 0.017 for the first, 0.302 ± 0.019 for the second.

Compared with VVACCVVFWVLP, VVCLCEYRLHIF is lower in protein stability index: 0.292 ± 0.022 for the first, 0.0733 ± 0.033 for the second.

Same assay, conditions: genetic background: wild type; temperature: 37 C

TSFLHLFVAAII and TSLPPSPPPSPT are within error of each other in protein stability index: 0.5505 ± 0.004 for the first, 0.562 ± 0.033 for the second.

First: TSPYTSFAHTSL
Second: VAFGVASGWCWF
The protein stability index of the first is higher: 0.71286 ± 0.00012 for the first, 0.6902 ± 0.0057 for the second.

Compared with VAFILVVCKGIG, VAWWVCIRSCCG is higher in protein stability index: 0.287 ± 0.0077 for the first, 0.53 ± 0.0066 for the second.

First: VCCSSVSLLVFA
Second: VCGYGFAVPCYT
The protein stability index of the first is lower: 0.419 ± 0.01 for the first, 0.535 ± 0.0076 for the second.

Going from VCILLVAWCLMG to VCLLGWGVRLVS, the protein stability index rises from 0.1546 ± 0.00053 to 0.576 ± 0.01.

Going from VCMHIVLLAASP to VCSRWFFVFVVR, the protein stability index rises from 0.263 ± 0.011 to 0.4917 ± 0.0013.

First: VCVFFRLCIVWY
Second: VDGVSFFVVLLC
The protein stability index of the first is lower: 0.145 ± 0.012 for the first, 0.427 ± 0.0064 for the second.

VDSTCLLITLLA and VEIKSKRMLVVI are within error of each other in protein stability index: 0.456 ± 0.02 for the first, 0.4749 ± 0.0012 for the second.

First: VEQLLYIKATNV
Second: VFDFVFHLRFVV
The protein stability index of the first is higher: 0.5062 ± 0.0015 for the first, 0.117 ± 0.011 for the second.

Going from VFFCLFVLFLSG to VFFGLYLVTFTS, the protein stability index falls from 0.408 ± 0.021 to 0.3575 ± 0.0028.

Going from VFFHFFVCWRFV to VFFLLSVYMVMM, the protein stability index rises from 0.0857 ± 0.0019 to 0.32 ± 0.02.

Compared with VFFTSLPPLLRA, VFIVVEFRLSLY is lower in protein stability index: 0.486 ± 0.013 for the first, 0.263 ± 0.0037 for the second.

First: VFKLGWVLCVLL
Second: VFLACSMTGGDA
The protein stability index of the first is higher: 0.3 ± 0.0072 for the first, 0.264 ± 0.016 for the second.

VFLDCCLRVFVD and VFLLFFFGLFVF are within error of each other in protein stability index: 0.389 ± 0.012 for the first, 0.414 ± 0.035 for the second.

First: VFLPVMVFFTFS
Second: VFRLLLFFVFVF
The protein stability index of the first is higher: 0.469 ± 0.016 for the first, 0.354 ± 0.015 for the second.

First: VGAVGVCILFVW
Second: VGFYGRWVCVAC
The protein stability index of the first is higher: 0.43 ± 0.013 for the first, 0.384 ± 0.0068 for the second.

First: VGGSRGARLGVG
Second: VGRANLSVIRKV
The protein stability index of the first is lower: 0.42 ± 0.021 for the first, 0.588 ± 0.013 for the second.

Compared with VGSSSGRLLYLC, VGTIVLTCIEVN is lower in protein stability index: 0.43 ± 0.0049 for the first, 0.205 ± 0.0017 for the second.

Going from VGVVLWVWGLGD to VGVVVVGDVLVW, the protein stability index falls from 0.61 ± 0.03 to 0.402 ± 0.0091.

First: VIQNKKKNKITS
Second: VIYYVRVGLVLS
The protein stability index of the first is higher: 0.284 ± 0.018 for the first, 0.126 ± 0.016 for the second.

First: VLARGFHCMYFC
Second: VLGPRFCFVCHA
The protein stability index of the first is higher: 0.623 ± 0.02 for the first, 0.4594 ± 0.003 for the second.

First: VLLSSSLVFLIS
Second: VLVCYFCRYISH
The protein stability index of the first is higher: 0.575 ± 0.0085 for the first, 0.5316 ± 0.0028 for the second.

Going from VLVTFFIRSGVS to VMFCRFPLRFGC, the protein stability index rises from 0.49942 ± 1.4e-06 to 0.561 ± 0.021.

Going from VPTRRRGNRRPA to VQVLVAIMDGRM, the protein stability index falls from 0.706 ± 0.02 to 0.39 ± 0.017.

Going from VRFLSLNVLFFC to VRGWLAYLRWII, the protein stability index falls from 0.48 ± 0.0046 to 0.303 ± 0.0047.

Compared with VSFGELGVEVVG, VSGEWSFLVRVQ is lower in protein stability index: 0.7148 ± 0.0022 for the first, 0.554 ± 0.012 for the second.

First: VSISLCVLCPVF
Second: VSLSWFSCCFVG
The protein stability index of the first is lower: 0.312 ± 0.008 for the first, 0.458 ± 0.01 for the second.

Compared with VSVFSLFLFLRV, VSVVLKTQRVVC is higher in protein stability index: 0.353 ± 0.049 for the first, 0.535 ± 0.01 for the second.

First: VTFWISLVYVLV
Second: VTVWVFVFLRGL
The protein stability index of the first is lower: 0.279 ± 0.027 for the first, 0.453 ± 0.0035 for the second.

First: VVACCVVFWVLP
Second: VVCLCEYRLHIF
The protein stability index of the first is higher: 0.507 ± 0.013 for the first, 0.0928 ± 0.0073 for the second.

Reference: the supplement of paper PMC10724198
